Molecular target: T1, TRF2 (human), Q15554
T1 chain: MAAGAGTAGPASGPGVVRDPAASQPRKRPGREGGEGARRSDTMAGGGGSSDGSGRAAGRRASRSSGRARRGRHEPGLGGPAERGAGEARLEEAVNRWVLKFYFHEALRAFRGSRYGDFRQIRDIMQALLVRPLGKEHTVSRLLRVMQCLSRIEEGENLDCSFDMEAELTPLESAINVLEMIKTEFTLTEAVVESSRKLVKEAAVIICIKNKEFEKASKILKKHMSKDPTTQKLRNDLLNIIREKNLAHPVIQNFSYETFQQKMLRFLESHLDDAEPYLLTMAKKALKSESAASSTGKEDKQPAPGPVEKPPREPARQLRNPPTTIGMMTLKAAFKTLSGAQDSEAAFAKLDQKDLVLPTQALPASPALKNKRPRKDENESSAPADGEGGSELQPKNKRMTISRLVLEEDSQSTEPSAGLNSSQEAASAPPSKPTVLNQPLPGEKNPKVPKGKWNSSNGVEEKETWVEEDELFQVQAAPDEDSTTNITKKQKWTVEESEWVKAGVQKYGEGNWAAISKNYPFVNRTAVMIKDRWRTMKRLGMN
Details: remark: other sources report otherwise

B1: TRF2, Q15554 1-542 (natural protein)
chain: T1 chain
In the case of B1, the stoichiometry N is reported as 2.

— publication doi:10.1101/2021.04.30.442189
